B1: Coiled-coil domain-containing protein 124 (Homo sapiens), Q96CT7 (parent)
chain: MPKKFQGENTKSAAARARRAEAKAAADAKKQKELEDAYWKDDDKHVMRKEQRKEEKEKRRLDQLERKKETQRLLEEEDSKLKGGKAPRVATSSKVTRAQIEDTLRRDHQLREAPDTAEKAKSHLEVPLEENVNRRVLEEGSVEARTIEDAIAVLSVAEEAADRHPERRMRAAFTAFEEAQLPRLKQENPNMRLSQLKQLLKKEWLRSPDNPMNQRAVPFNAPK

Columns and labels:
npm_human NPM1, P06748 [1] = variants of: B1; conditions: with npm_human NPM1, P06748
npm_human NPM1, P06748 [2] = variants of: B1; conditions: with npm_human NPM1, P06748; remark: listed apart in the source

Chain of npm_human NPM1, P06748 (P06748 whole entry): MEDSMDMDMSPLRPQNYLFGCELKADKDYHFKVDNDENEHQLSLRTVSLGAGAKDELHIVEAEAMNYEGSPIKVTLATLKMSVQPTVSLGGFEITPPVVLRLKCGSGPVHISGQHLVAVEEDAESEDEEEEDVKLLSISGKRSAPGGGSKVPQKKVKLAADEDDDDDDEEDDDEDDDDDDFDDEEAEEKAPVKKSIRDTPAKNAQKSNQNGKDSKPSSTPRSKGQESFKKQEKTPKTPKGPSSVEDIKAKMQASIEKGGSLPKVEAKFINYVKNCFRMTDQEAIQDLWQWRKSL

Row | Variant | effect of a mutation on the interaction (npm_human NPM1, P06748 [1]) | effect of a mutation on the interaction (npm_human NPM1, P06748 [2])
1 | MPKKFQGENTKSAAARARRAEAKAAADAKKQKELEDAYWKDDDKHVMRKEQRKEEKEKRRLDQLERKKETQRLLEEEDSKLKGGKAPRVATSSKVTRAQIEDTLRRDHQLREAPDTAEKAKSHLEVPLEENVNRRVLEEGAVEARTIEDAIAVLSVAEEAADRHPERRMRAAFTAFEEAQLPRLKQENPNMRLSQLKQLLKKEWLRSPDNPMNQRAVPFNAPK [S141A] | decreasing interaction strength | with no effect
2 | MPKKFQGENTKSAAARARRAEAKAAADAKKQKELEDAYWKDDDKHVMRKEQRKEEKEKRRLDQLERKKETQRLLEEEDSKLKGGKAPRVATSSKVTRAQIEDTLRRDHQLREAPDTAEKAKAHLEVPLEENVNRRVLEEGAVEARTIEDAIAVLSVAEEAADRHPERRMRAAFTAFEEAQLPRLKQENPNMRLSQLKQLLKKEWLRSPDNPMNQRAVPFNAPK [S122A;S141A] | decreasing interaction strength | with no effect
3 | MPKKFQGENTKSAAARARRAEAKAAADAKKQKELEDAYWKDDDKHVMRKEQRKEEKEKRRLDQLERKKETQRLLEEEDSKLKGGKAPRVATSSKVTRAQIEDTLRRDHQLREAPDTAEKAKAHLEVPLEENVNRRVLEEGSVEARTIEDAIAVLSVAEEAADRHPERRMRAAFTAFEEAQLPRLKQENPNMRLSQLKQLLKKEWLRSPDNPMNQRAVPFNAPK [S122A] | decreasing interaction strength | disrupting interaction strength

Reference: IntAct's records for PubMed 38029384
